In patent US20120165244A1, “METHODS FOR BINDING LEWIS Y ANTIGEN” (priority 2008, published 2012):

Tests used:
binding of CD14 to LPS = biological target: T1, binding of CD14 to LPS (Homo sapiens, UniProt P08571); assay: Blockage of the binding of CD14 to LPS; settings: FIG. 4D
T1 construct: purchased R&D Systems
T1 sequence (P08571 20-352 limits assumed): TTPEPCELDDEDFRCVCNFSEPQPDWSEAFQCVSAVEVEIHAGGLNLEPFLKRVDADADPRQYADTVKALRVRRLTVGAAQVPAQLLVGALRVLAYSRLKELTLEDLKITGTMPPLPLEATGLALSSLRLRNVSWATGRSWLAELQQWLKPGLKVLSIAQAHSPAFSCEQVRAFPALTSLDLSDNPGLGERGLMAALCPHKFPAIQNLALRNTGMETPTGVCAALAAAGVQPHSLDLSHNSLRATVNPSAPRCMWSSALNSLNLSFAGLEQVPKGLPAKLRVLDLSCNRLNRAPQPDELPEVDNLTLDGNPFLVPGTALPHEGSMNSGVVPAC
Method: (§1) K. pneumoniae (3×10^5 CFU/well), E. coli O111:B4 smooth-type LPS (5 μg/well), or bovine serum albumin (BSA, 5 μg/well) in 100 μL of bicarbonate buffer (pH 9.6) were coated onto wells of high-binding microtiter plate (Corning Costar, Cambridge, Mass.). Nonspecific binding was blocked with binding buffer (20 mM Tris-HCl, pH 7.4, 0.15 M NaCl, 5 mM CaCl2) containing 50 mg/mL BSA. Various concentrations of rTMD proteins without or with CD14 (10 μg/mL; R&D Systems) in binding buffer containing 1 mg/mL BSA were added to wells and incubated for 2 hours. In some experiments, 0.2 M mannose, 5 mM EDTA, or Le^y were included in the binding buffer to compete with LPS and rTMD1 binding. Antibody against the c-Myc epitope of the rTMD proteins was added to wells and incubated for 2 hours, and peroxidase-labeled secondary antibody followed. Binding of rTMD proteins was detected by measuring absorbance at 450 nm.

[1] = Lethal sepsis model (LPS 40 mg/kg i.p.), survival; format: in vivo, Male FVB mice; settings: four i.v. doses of 2 mg/kg
Method: Male FVB mice (8-10 weeks old) were used to model sepsis in vivo. The Institutional Animal Care and Use Committee of the National Cheng Kung University approved procedures. In the chronic endotoxemia model, various concentrations of rTMD1 or rTMD proteins in equi-molar amounts were administrated by tail intravenous (i.v.) injection and LPS (20 mg/kg) or K. pneumoniae (5×10^2 CFU/mouse, BCRC) was administrated by intraperitoneal (i.p.) injection. After 6 or 12 hours, mice were sacrificed by pentobarbital anesthesia (50 mg/kg; i.p.). […] The half-life of rTMD1 in the circulation was determined by i.v. injection of rTMD1 (10 mg/kg, equals 436.64 nmole/kg) and serum samples were collected at various time intervals. The levels of rTMD1 in the collected sera were determined by a sandwich ELISA which employed anti-c-Myc monoclonal antibody and TM-H300 as capture and detection antibodies (both from Santa Cruz Biotechnology), respectively. […] Mortality was monitored every 6-12 hours until all mice in either experimental group died. […] Serum samples were collected at various time intervals and the amount of LPS was determined by Limulus amebocyte lysate test (Associates of Cape Cod, E. Falmouth, Mass.). […] Outgrowth of K. pneumoniae was quantified by plating serial dilutions of blood samples on blood agar plates and enumerating colonies after overnight incubation at 37° C.

RAW 264.7 cells [2] = assay: LPS-induced TNF-α production in RAW 264.7 cells (ELISA); format: cell-based, murine
Method: (§2) Human leukemia monocytic THP-1 cells and murine macrophage cell line RAW 264.7 were obtained from the American Type Culture Collection. THP-1 cells were grown in suspension in RPMI-1640 supplemented with 10 mM HEPES, 1 mM sodium pyruvate, 0.1% β-mercaptoethanol, 100 U/ml penicillin, 100 µg/ml streptomycin, and 10% fetal bovine serum (FBS). RAW 264.7 cells were grown as an adhered layer in Dulbecco's modified Eagle's medium with 4 mM L-glutamine adjusted to contain 1.5 g/l sodium bicarbonate and 4.5 g/l glucose, 100 U/ml penicillin, […] streptomycin, and 10% FBS under a humidified 5% CO2 atmosphere at 37° C. For differentiation, THP-1 cells were plated in medium containing 10 nM PMA and allowed to adhere for 18 h.
(§3) TNF-α in conditioned medium or mouse serum was measured by an enzyme-linked immunosorbent assay (ELISA) (R&D Systems, Minneapolis, Minn.). Accumulation of nitrite in the medium or mouse serum was determined by a colorimetric assay using Griess reagent (Sigma-Aldrich). Blood urea nitrogen (BUN) and creatinine were measured with a Roche D&P modular (Roche Diagnostic Systems, Branchburg, N.J.). Assays were performed according to the manufacturer's protocol.

[3] = LPS binding assay (coated wells); set-up: species or system E. coli; settings: FIG. 4B
Method: as §1

K. pneumoniae [4] = assay: Bacterial agglutination, FITC-labeled K. pneumoniae; settings: 20 μg/mL protein, 5 mM CaCl2
Method: K. pneumoniae and E. coli DH5α (BCRC) were washed twice in 0.1 M sodium bicarbonate buffer (pH 9.6) and incubated with 0.1 mg/mL fluorescein isothiocyanate (FITC) at 37° C. in the dark. Each of 20 μg/mL of rTMD1, non-tagged rTMD1, mammalian rTMD1, and recombinant TM domains 2 and 3 (rTMD23) was co-incubated with FITC-labeled bacteria (1×10^5CFU/mL) in buffer (20 mM Tris, pH 7.4, 0.15 M NaCl, 5 mM CaCl2, 1 mg/mL BSA) with or without 0.2 M mannose or 5 mM EDTA. Samples were individually placed on a glass slide and fluorescently-labeled bacteria were observed microscopically to evaluate agglutination.

RAW 264.7 cells [5] = assay: LPS-induced NO production in RAW 264.7 cells (Griess reagent); format: cell-based, murine; settings: pre-incubated with LPS, 6 hours incubation (FIG. 1B)
Method: as §2, §3

K. pneumoniae [6] = assay: K. pneumoniae binding assay (coated wells); settings: FIG. 4A
Method: as §1

B1: rTMD1: recombinant human thrombomodulin N-terminal lectin-like domain (residues Ala1-Ala155) with 6×His tag and c-Myc epitope, Pichia pastoris expressed (protein)
chain: EFAPAEPQPGGSQCVEHDCFALYPGPATFLNASQICDGLRGHLMTVRSSVAADVISLLLNGDGGVGRRRLWIGLQLPPGCGDPKRLGPLRGFQWVTGDNNTSYSRWARLDLNGAPLCGPLCVAVSAAEATVPSEPIWEEQQCEVKADGFLCEFHFPAYLEDDDDKIEQKLISEEDLNSAVDHHHHHH
modifications: left off: small tags and cut ends
Binding of CD14 to LPS
  binding of CD14 to LPS: inhibited
[1]; 1 day after LPS challenge
  survival: 100%
[1]; 4 days after LPS challenge
  survival: 60%
RAW 264.7 cells [2]; pre-incubated with LPS, 6 hours incubation (FIG. 1A)
  TNF-α production in RAW 264.7 cells stimulated with LPS: dose-dependently inhibited
RAW 264.7 cells [2]; various concentrations of LPS and rTMD1 (FIG. 1C)
  LPS-induced TNF-α production: dose-dependently inhibited
[3]
  binding to LPS: specifically bound
[3]; estimated from the 50% saturation, read-out: apparent Kd of the binding of LPS with rTMD1
  Kd: ~1600 nM
K. pneumoniae [4]
  agglutination of K. pneumoniae: induced marked agglutination
RAW 264.7 cells [5]
  NO production in RAW 264.7 cells: effectively inhibit
K. pneumoniae [6]
  binding to K. pneumoniae: specifically bind
